Experimental data from patent publication US20260092920A1 (FIBROINOVA BIOMEDICAL TECHNOLOGY GUANGZHOU, published 2026).

Target: T1, His-tagged extracellular domain of antigen DDR2 (human, UniProt Q16832 22-399)
T1 construct: range 22-399; Captured on Ni-NTA sensors in BLI; also called extracellular domain protein of the DDR2 antigen; DDR2 antigen; not shown: His tag
T1 sequence (looked up): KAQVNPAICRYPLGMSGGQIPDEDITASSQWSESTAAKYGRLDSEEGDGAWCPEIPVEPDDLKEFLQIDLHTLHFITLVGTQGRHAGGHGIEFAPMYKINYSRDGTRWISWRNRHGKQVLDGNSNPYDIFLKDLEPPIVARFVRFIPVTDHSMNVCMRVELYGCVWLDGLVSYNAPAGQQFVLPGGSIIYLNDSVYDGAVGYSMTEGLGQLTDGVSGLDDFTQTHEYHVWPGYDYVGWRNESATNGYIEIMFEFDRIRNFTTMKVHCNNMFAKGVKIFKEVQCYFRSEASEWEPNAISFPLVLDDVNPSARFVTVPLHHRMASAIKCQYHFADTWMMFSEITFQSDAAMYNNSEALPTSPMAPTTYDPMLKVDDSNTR
Experiment: BLI (ForteBio), His-tagged DDR2 extracellular domain captured on Ni-NTA sensor, nanobody 100 nM to 3.125 nM in solution, 1:1 fit
Protocol: For the DDR2 nanobody 1A12 described above, based on the ForteBio bio-layer interferometry (BLI) platform for molecular interaction analysis, the affinity of the nanobody for the extracellular domain protein of the DDR2 antigen was analyzed and detected by determining the affinity of the antibody for the antigen by using the BLI method.
The kinetic curves were made, and the relevant parameters were calculated. Appropriate binding and dissociation curves of several concentration gradients were selected. All the curves were fitted using the 1:1 binding model. Three curves with the best fitting degrees were selected for plotting and analysis. Finally, important parameters such as affinity value, binding constant, and dissociation constant were obtained.

B1: DDR2 nanobody 1A12 (VHH)
VHH: EVQLVESGGGLVQPGGSLRLSCAASGYILSPNVMGWFRQAPGKGRELVAAISWGDGRTYYPDSVEGRFTISRDNAKRMVYLQMNSLRAEDTAVYYCAASRKGYPSTRSDPYNYWGQGTQVTVSS
notes: VHH of an alpaca heavy chain antibody raised against the human DDR2 extracellular domain; Expressed and purified; also called Nb-DDR2; 1A12-VHH
Kd: 4.36 nM
